This data set can be described thus: total protein half-life in vivo (active degradation + dilution); higher = more stable protein.
Setting [1] is: E. coli NCM3722 delta-clpP delta-lon delta-hslV, growth: N-lim chemostat, doubling time 6 h.
Where [2] appears, read: E. coli NCM3722 delta-clpP, growth: N-lim chemostat, doubling time 6 h.
Where [3] appears, read: E. coli NCM3722 delta-hslV, growth: N-lim chemostat, doubling time 6 h.
Setting [4] is: E. coli NCM3722 delta-lon, growth: N-lim chemostat, doubling time 6 h.
The mark [5] stands for this setting: E. coli NCM3722 delta-smpB, growth: N-lim chemostat, doubling time 6 h.
The mark [6] stands for this setting: wild type E. coli NCM3722, growth: C-lim chemostat, doubling time 6 h.
The mark [7] stands for this setting: wild type E. coli NCM3722, growth: C-lim chemostat, doubling time 12 h.
The mark [8] stands for this setting: wild type E. coli NCM3722, growth: N-lim chemostat, doubling time 6 h.
The mark [9] stands for this setting: wild type E. coli NCM3722, growth: N-lim chemostat, doubling time 12 h.
Where [10] appears, read: wild type E. coli NCM3722, growth: P-lim chemostat, doubling time 6 h.
Setting [11] is: wild type E. coli NCM3722, growth: P-lim chemostat, doubling time 12 h.
Setting [12] is: wild type E. coli NCM3722, growth: C-lim chemostat, doubling time 3 h.

Data on six sequences can be found in the supplement of paper PMC11246515.

± gives the standard deviation of the averaged measurements.

Consider “MKTMLAAYLPGNSTVDLREVAVPTPGINQVLIKMKSSGICGSDVHYIYHQHRATAAAPDKPLYQGFINGHEPCGQIVAMGQGCRHFKEGDRVLVYHISGCGFCPNCRRGFPISCTGEGKAAYGWQRDGGHAEYLLAEEKDLILLPDALSYEDGAFISCGVGTAYEGILRGEVSGSDNVLVVGLGPVGMMAMMLAKGRGAKRIIGVDMLPERLAMAKQLGVMDHGYLATTEGLPQIIAELTHGGADVALDCSGNAAGRLLALQSTADWGRVVYIGETGKVEFEVSADLMHHQRRIIGSWVTSLFHMEKCAHDLTDWKLWPRNAITHRFSLEQAGDAYALMASGKCGKVVINFPD”, for which the “total protein half-life in vivo” value runs as follows: under setting [1], 4.41 ± 0.15 h; under setting [2], 2.87 h; under setting [3], 2.466 ± 0.011 h; under setting [4], 2.619 ± 0.012 h; under setting [5], 1.84 ± 1.1 h; under setting [6], 2.74 h. The “total protein half-life in vivo” value under setting [7] was 5.33 ± 3.6 h; the “total protein half-life in vivo” value under setting [8] is 2.17 ± 0.04 h; the “total protein half-life in vivo” value under setting [9] is 3.6 ± 0.11 h; the “total protein half-life in vivo” value under setting [10] was 4.27 ± 0.51 h; the “total protein half-life in vivo” value under setting [11] turned out to be 8.54 ± 2.2 h.
“MALLEICCYSMECALTAQQNGADRVELCAAPKEGGLTPSLGVLKSVRQRVTIPVHPIIRPRGGDFCYSDGEFAAILEDVRTVRELGFPGLVTGVLDVDGNVDMPRMEKIMAAAGPLAVTFHRAFDMCANPLYTLNNLAELGIARVLTSGQKSDALQGLSKIMELIAHRDAPIIMAGAGVRAENLHHFLDAGVLEVHSSAGAWQASPMRYRNQGLSMSSDEHADEYSRYIVDGAAVAEMKGIIERHQAK”: the “total protein half-life in vivo” value under setting [1] stood at 5.29 ± 1.1 h; the “total protein half-life in vivo” value under setting [2] turned out to be 5.31 ± 1.4 h; the “total protein half-life in vivo” value under setting [3] is 5.99 ± 2.8 h; the “total protein half-life in vivo” value under setting [4] is 4.73 ± 0.25 h; the “total protein half-life in vivo” value under setting [5] was 4.47 ± 0.33 h; the “total protein half-life in vivo” value under setting [12] was determined as 3.26 ± 0.64 h. In addition, the “total protein half-life in vivo” value came to 6.29 ± 0.61 h under setting [6]; 9.735 ± 0.081 h under setting [7]; 4.35 ± 0.53 h under setting [8]; 6.84 ± 0.21 h under setting [9]; 5.85 ± 0.37 h under setting [10]; 11.8 ± 1.1 h under setting [11].
Turning to “MAGNDREPIGRKGKPTRPVKQKVSRRRYEDDDDYDDYDDYEDEEPMPRKGKGKGKGRKPRGKRGWLWLLLKLAIVFAVLIAIYGVYLDQKIRSRIDGKVWQLPAAVYGRMVNLEPDMTISKNEMVKLLEATQYRQVSKMTRPGEFTVQANSIEMIRRPFDFPDSKEGQVRARLTFDGDHLATIVNMENNRQFGFFRLDPRLITMISSPNGEQRLFVPRSGFPDLLVDTLLATEDRHFYEHDGISLYSIGRAVLANLTAGRTVQGASTLTQQLVKNLFLSSERSYWRKANEAYMALIMDARYSKDRILELYMNEVYLGQSGDNEIRGFPLASLYYFGRPVEELSLDQQALLVGMVKGASIYNPWRNPKLALERRNLVLRLLQQQQIIDQELYDMLSARPLGVQPRGGVISPQPAFMQLVRQELQAKLGDKVKDLSGVKIFTTFDSVAQDAAEKAAVEGIPALKKQRKLSDLETAIVVVDRFSGEVRAMVGGSEPQFAGYNRAMQARRSIGSLAKPATYLTALSQPKIYRLNTWIADAPIALRQPNGQVWSPQNDDRRYSESGRVMLVDALTRSMNVPTVNLGMALGLPAVTETWIKLGVPKDQLHPVPAMLLGALNLTPIEVAQAFQTIASGGNRAPLSALRSVIAEDGKVLYQSFPQAERAVPAQAAYLTLWTMQQVVQRGTGRQLGAKYPNLHLAGKTGTTNNNVDTWFAGIDGSTVTITWVGRDNNQPTKLYGASGAMSIYQRYLANQTPTPLNLVPPEDIADMGVDYDGNFVCSGGMRILPVWTSDPQSLCQQSEMQQQPSGNPFDQSSQPQQQPQQQPAQQEQKDSDGVAGWIKDMFGSN”, the “total protein half-life in vivo” value is, setting by setting: under setting [1], 6.443 ± 0.011 h; under setting [2], 6.43 ± 0.51 h; under setting [3], 6.2211 ± 0.00055 h; under setting [4], 6.266 ± 0.031 h; under setting [5], 6.19 ± 0.56 h; under setting [12], 3.17 ± 0.036 h. Further, the “total protein half-life in vivo” value came out at 6.09 ± 0.71 h under setting [6]; 12.4 ± 1.3 h under setting [7]; 6.01 ± 0.19 h under setting [8]; 12.5 ± 0.15 h under setting [9]; 6.15 ± 0.58 h under setting [10]; 12.4 ± 0.17 h under setting [11].
Regarding “MPPRRYNPDTRRDELLERINLDIPGAVAQALREDLGGTVDANNDITAKLLPENSRSHATVITRENGVFCGKRWVEEVFIQLAGDDVTIIWHVDDGDVINANQSLFELEGPSRVLLTGERTALNFVQTLSGVASKVRHYVELLEGTNTQLLDTRKTLPGLRSALKYAVLCGGGANHRLGLSDAFLIKENHIIASGSVRQAVEKASWLHPDAPVEVEVENLEELDEALKAGADIIMLDNFETEQMREAVKRTNGKALLEVSGNVTDKTLREFAETGVDFISVGALTKHVQALDLSMRFR”, the “total protein half-life in vivo” value reads like this: under setting [1], 4.6 ± 0.47 h; under setting [2], 5.46 ± 2.3 h; under setting [3], 4.1 ± 0.29 h; under setting [4], 6.13 ± 1.8 h; under setting [5], 4.05 ± 0.33 h; under setting [12], 2.86 ± 0.25 h. In addition, the “total protein half-life in vivo” value under setting [6] is 5.827 ± 0.04 h; the “total protein half-life in vivo” value under setting [7] was determined as 8.46 ± 0.51 h; the “total protein half-life in vivo” value under setting [8] turned out to be 3.72 ± 0.12 h; the “total protein half-life in vivo” value under setting [9] is 7.1 ± 0.15 h; the “total protein half-life in vivo” value under setting [10] came out at 5.5 ± 0.4 h; the “total protein half-life in vivo” value under setting [11] is 9.73 ± 0.27 h.
As for “MTEPLKPRIDFDGPLEVDQNPKFRAQQTFDENQAQNFAPATLDEAQEEEGQVEAVMDAALRPKRSLWRKMVMGGLALFGASVVGQGVQWTMNAWQTQDWVALGGCAAGALIIGAGVGSVVTEWRRLWRLRQRAHERDEARDLLHSHGTGKGRAFCEKLAQQAGIDQSHPALQRWYASIHETQNDREVVSLYAHLVQPVLDAQARREISRSAAESTLMIAVSPLALVDMAFIAWRNLRLINRIATLYGIELGYYSRLRLFKLVLLNIAFAGASELVREVGMDWMSQDLAARLSTRAAQGIGAGLLTARLGIKAMELCRPLPWIDDDKPRLGDFRRQLIGQVKETLQKGKTPSEK [P0A8R7]”, the “total protein half-life in vivo” value is, setting by setting: under setting [1], 5.42 ± 0.51 h; under setting [2], 5.1 ± 0.24 h; under setting [3], 4.51 ± 0.62 h; under setting [4], 4.85 ± 0.12 h; under setting [5], 4.83 ± 0.29 h; under setting [12], 2.96 ± 0.27 h. In addition, the “total protein half-life in vivo” value reads like this: under setting [6], 4.75 ± 0.28 h; under setting [7], 11.2 ± 0.13 h; under setting [8], 5.23 ± 0.17 h; under setting [9], 8.5 ± 0.23 h; under setting [10], 5.02 ± 0.48 h; under setting [11], 8.52 ± 0.38 h.
Regarding “MKKMLLATALALLITGCAQQTFTVQNKQTAVAPKETITHHFFVSGIGQKKTVDAAKICGGAENVVKTETQQTFVNGLLGFITLGIYTPLEARVYCSK”, the “total protein half-life in vivo” value reads like this: under setting [1], 6.1 ± 0.25 h; under setting [2], 6.87 h; under setting [3], 6.21 h; under setting [5], 6.05 ± 0.44 h; under setting [12], 3.42 ± 0.22 h; under setting [7], 9.62 ± 2.6 h. The “total protein half-life in vivo” value reads like this: under setting [8], 6.71 ± 0.74 h; under setting [9], 12.4 ± 0.78 h; under setting [10], 6.65 ± 0.69 h; under setting [11], 14.7 ± 0.54 h.
